{"source": "paper PMC6721692", "about": "“Extracellular Juxtamembrane Motif Critical for TrkB Preformed Dimer and Activation” (Cells, 2019)", "proteins": {"B1": {"name": "TrkBdelECD365-eGFP (human truncated TrkB lacking the ECD up to residue 365, EJM retained) (domain or fragment)", "chain": "not shown", "notes": "EJM, transmembrane and intracellular parts retained; amplified from pGFP-hTrkB with the printed primers; The signal peptide of the vector pGFP-hTrkB is not described; also called hTrkBdelECD365-eGFP; TrkB lacking ECD365; source: CHO cells, stably transfected (CHO-TrkBdelECD365-eGFP), in lysate; not shown: eGFP, C-terminal, kept"}}, "target": "the molecule itself", "test": "native gel or EMSA; native PAGE (no SDS, no β-ME) of lysates of CHO-TrkBdelECD365-eGFP cells treated with vehicle, BDNF or MM12 (1.0 nM, 37 °C); Western blot with MM12", "data": [{"protein": "B1", "values": [{"measurement": "stoichiometry N", "result": 2}]}]}
